Measured values from patent US11793905B2, “Dressing” (University of Birmingham, priority 2015, dated 2023).

System: MFs
Assay: Sirius red assay of collagen deposition from MFs under decorin-containing gellan membranes
Assay type: cell-based
Conditions: MFs with TGF-β1 added to produce excess collagen; 12 day period; Sirius red dye read at 550 nm; compared to non-treated samples
Method: FIG. 4—MFs were cultured in 6-well plates and left to attach overnight. After overnight attachment TGF-β1 was added to the cells to produces excess collagen. Decorin containing membranes were placed on top of the cultures and collagen production was observed using the Sirius Red assay over time.
FIG. 5: For quantifying the amount of Sirius red dye bound to collagen in the cultures the Sirius red was dissolved with 0.1N sodium hydroxide and left on a shaker for 30 min at room temperature. The dissolved dye was measured colourimetrically using a plate reader at 550 nm

B1: decorin (protein, UniProt P07585 31-359, looked up)
Decorin: DEASGIGPEVPDDRDFEPSLGPVCPFRCQCHLRVVQCSDLGLDKVPKDLPPDTTLLDLQNNKITEIKDGDFKNLKNLHALILVNNKISKVSPGAFTPLVKLERLYLSKNQLKELPEKMPKTLQELRAHENEITKVRKVTFNGLNQMIVIELGTNPLKSSGIENGAFQGMKKLSYIRIADTNITSIPQGLPPSLTELHLDGNKISRVDAASLKGLNNLAKLGLSFNSISAVDNGSLANTPHLRELHLDNNKLTRVPGGLAEHKYIQVVYLHNNNISVVGSSDFCPPGHNTKKASYSGVSLFSNPVQYWEIQPSTFRCVYVRSAIQLGNYK
notes: secreted 45 kDA proteoglycan with a core protein comprising primarily leucine-rich repeats; antifibrotic agent
- amount of collagen deposited: significantly reduces the amount of collagen deposited
